Experiment [1] has as its target T1, cCEACAM5, M. fascicularis CEACAM5 ECD (35-688) (Macaca fascicularis).
T1 construct: ECD followed by a 24 amino acid extension containing a His-Tag; also called cynomolgus CEACAM5; monkey CEACAM5
T1 chain: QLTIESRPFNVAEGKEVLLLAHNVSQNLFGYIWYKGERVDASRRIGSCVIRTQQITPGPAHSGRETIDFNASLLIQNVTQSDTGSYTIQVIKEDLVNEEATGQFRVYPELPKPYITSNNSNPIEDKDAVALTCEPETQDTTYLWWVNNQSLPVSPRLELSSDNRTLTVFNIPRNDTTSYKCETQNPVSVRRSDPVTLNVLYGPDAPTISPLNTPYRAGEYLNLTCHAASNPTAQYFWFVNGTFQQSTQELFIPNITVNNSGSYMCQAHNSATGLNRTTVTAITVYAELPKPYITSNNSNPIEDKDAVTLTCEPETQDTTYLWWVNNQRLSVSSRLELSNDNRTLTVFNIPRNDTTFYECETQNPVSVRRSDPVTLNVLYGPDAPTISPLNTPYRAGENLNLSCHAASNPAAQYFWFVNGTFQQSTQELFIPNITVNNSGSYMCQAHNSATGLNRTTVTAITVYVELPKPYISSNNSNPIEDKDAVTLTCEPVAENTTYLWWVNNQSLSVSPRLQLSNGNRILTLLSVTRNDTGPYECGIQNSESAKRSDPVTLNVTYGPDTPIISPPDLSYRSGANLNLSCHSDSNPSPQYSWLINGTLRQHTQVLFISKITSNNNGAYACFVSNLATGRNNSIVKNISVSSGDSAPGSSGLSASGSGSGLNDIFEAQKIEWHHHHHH
The experiment is described as follows: SPR screening (Biacore T200) of example 6.4. The procedure:
(§1) To evaluate impact of these modifications, IgGs binding was determined by measuring SPR signals with a Biacore T200 unit (GE Healthcare). Anti-human Fc antibodies were coupled to a Series S CM5 chip via amine coupling kit to reach a level of 10,000 response units (RU). Approximately 300 to 600 RU of each variant were captured by injecting supernatants at 1 μg/mL with a contact time of 60 seconds and a flow rate of 10 μL/min. All experiments were performed at 25° C. with HBS-EP+(10 mM Hepes, 150 mM NaCl, 3 mM EDTA, 0.05% surfactant P20) as the running buffer. In a screening mode, the human CEACAM5 cynomolgus CEACAM5/human A3B3 domain was injected at 50 nM over the captured IgG variants at a flow rate of 30 μLimin for 1 minute. […]
(§2) For each experiment, response data were processed using a reference surface, thereby allowing correction for bulk refractive index changes and any non-specific binding. […] First, the binding activity is estimated by the proportion of the theoretical maximum signal measured (percentage of Rmax, see FIG. 16). Second, the percentage of remaining signal is calculated using dissociation report points (the first one 10 seconds after the end of the injection and the second one 50 seconds after the end of injection) and reflects the stability of binding (see FIG. 17).
Background: SPR reads the build-up and loss of mass on a sensor chip optically.

For experiment [2], the target named is T2, hCEACAM5, human CEACAM5 ECD (35-685) (human, UniProt P06731 35-685).
T2 construct: produced in HEK293; also called human CEACAM5 protein; human CEACAM5 extracellular domain
T2 sequence: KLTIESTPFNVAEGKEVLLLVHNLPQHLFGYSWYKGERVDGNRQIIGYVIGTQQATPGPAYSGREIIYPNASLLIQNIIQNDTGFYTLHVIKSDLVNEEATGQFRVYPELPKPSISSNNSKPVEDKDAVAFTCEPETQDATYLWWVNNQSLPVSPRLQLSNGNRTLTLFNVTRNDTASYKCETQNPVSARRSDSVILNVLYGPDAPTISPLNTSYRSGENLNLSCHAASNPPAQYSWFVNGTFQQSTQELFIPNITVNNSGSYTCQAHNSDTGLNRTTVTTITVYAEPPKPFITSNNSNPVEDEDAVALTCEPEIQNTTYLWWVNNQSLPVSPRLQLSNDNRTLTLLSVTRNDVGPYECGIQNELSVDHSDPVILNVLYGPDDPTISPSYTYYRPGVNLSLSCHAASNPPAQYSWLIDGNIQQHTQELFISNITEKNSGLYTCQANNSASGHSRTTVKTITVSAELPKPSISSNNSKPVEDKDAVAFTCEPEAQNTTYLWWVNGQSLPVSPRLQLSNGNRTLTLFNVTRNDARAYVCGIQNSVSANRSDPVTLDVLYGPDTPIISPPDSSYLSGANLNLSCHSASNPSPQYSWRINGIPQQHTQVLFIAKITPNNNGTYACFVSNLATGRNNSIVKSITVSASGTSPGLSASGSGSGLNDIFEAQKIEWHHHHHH
Description: SPR screening (Biacore T200) of example 6.4. The procedure:
as §1, §2

The target in experiment [3] is T1, cCEACAM5, M. fascicularis CEACAM5 ECD …. Description: SPR (Biacore T200), IgG captured by anti-human Fc, antigen injected at 50 nM; % Rmax reached. The procedure: (§3) To evaluate impact of these modifications, IgGs binding was determined by measuring SPR signals with a Biacore T200 unit (GE Healthcare). Anti-human Fc antibodies were coupled to a Series S CM5 chip via amine coupling kit to reach a level of 10,000 response units (RU). Approximately 300 to 600 RU of each variant were captured by injecting supernatants at 1 μg/mL with a contact time of 60 seconds and a flow rate of 10 μL/min. All experiments were performed at 25° C. with HBS-EP+(10 mM Hepes, 150 mM NaCl, 3 mM EDTA, 0.05% surfactant P20) as the running buffer. In a screening mode, the human CEACAM5 cynomolgus CEACAM5/human A3B3 domain was injected at 50 nM over the captured IgG variants at a flow rate of 30 μLimin for 1 minute. A dissociation phase of 60 seconds was held before the surface was regenerated with 1 pulse injection of 3 M MgCl₂ at a flow rate of 10 μLiminute and a contact time of 30 seconds.
(§4) For each experiment, response data were processed using a reference surface, thereby allowing correction for bulk refractive index changes and any non-specific binding. Data were double referenced using response from blank injections. According to the screening method described in an application note from GE Healthcare (Application note 28-9777-72 AA), two parameters were considered to rank the variants with respect to binding characteristics. First, the binding activity is estimated by the proportion of the theoretical maximum signal measured (percentage of Rmax, see FIG. 16). Second, the percentage of remaining signal is calculated using dissociation report points (the first one 10 seconds after the end of the injection and the second one 50 seconds after the end of injection) and reflects the stability of binding (see FIG. 17).

Experiment [4] addresses T2, hCEACAM5, human CEACAM5 ECD (35-685). The description is as above. Here is the method:
as §3, §4

In experiment [5] the target is T1, cCEACAM5, M. fascicularis CEACAM5 ECD …. The experiment is described as follows: SPR (Biacore T200), IgG captured by anti-human Fc, antigen injected at 50 nM; % remaining signal after 50 seconds. Here is the method:
as §3, §4

In experiment [6] the target is T2, hCEACAM5, human CEACAM5 ECD (35-685). The description is as above. The procedure: as §3, §4

The text below walks through data of US20220340682A1 (Sanofi, published 2022).

B1: MAb2_VLg5VHg2 (antibody, human IgG1, V domains shown)
VH: EVQLVESGGGLVQPGGSLRLSCAASGFVFSSYDMSWVRQAPGKGLEWVSYISSGGGITYYADSVKGRFTISRDNSKNTLYLQMNSLRAEDTAVYYCAAHYFGSSGPFAYWGQGTLVTVSS
VL: DIQMTQSPSSLSASVGDRVTITCRASENIFSYLAWYQQKPGKAPKLLIYNTRTLQSGVPSRFSGSGSGTDFTLTISSLQPEDFATYYCQHHYGTPFTFGQGTKLEIK
notes: Fused to human IgG1 and human Ckappa constant domains; tested as IgG in HEK293 supernatants diluted to 1 ug/ml; Parent of the alanine-scanning variants; also called MAb2_VLg5Hg2; humanized MAb2 grafted on IGHV3-23 / IGKV1D-39
B1: the binding result in experiment [1] and in experiment [2] was “binds” throughout.

B2: LC_T53I-HC_S53A (antibody, V domains shown)
VH: EVQLVESGGGLVQPGGSLRLSCAASGFVFSSYDMSWVRQAPGKGLEWVSYISAGGGITYYADSVKGRFTISRDNSKNTLYLQMNSLRAEDTAVYYCAAHYFGSSGPFAYWGQGTLVTVSS
VL: DIQMTQSPSSLSASVGDRVTITCRASENIFSYLAWYQQKPGKAPKLLIYNTRILQSGVPSRFSGSGSGTDFTLTISSLQPEDFATYYCQHHYGTPFTFGQGTKLEIK
notes: combination variant of MAb2_VLg5VHg2
Consider B2, for which the binding result in experiment [3] and in experiment [4] was “binds” in each case.

B3: LC_S31A (antibody, V domains shown)
VH: EVQLVESGGGLVQPGGSLRLSCAASGFVFSSYDMSWVRQAPGKGLEWVSYISSGGGITYYADSVKGRFTISRDNSKNTLYLQMNSLRAEDTAVYYCAAHYFGSSGPFAYWGQGTLVTVSS
VL: DIQMTQSPSSLSASVGDRVTITCRASENIFAYLAWYQQKPGKAPKLLIYNTRTLQSGVPSRFSGSGSGTDFTLTISSLQPEDFATYYCQHHYGTPFTFGQGTKLEIK
notes: variant of MAb2_VLg5VHg2
Turning to B3, the binding result in experiment [5] and in experiment [6] was “binds” in each case.

B4: LC_T94A (antibody, V domains shown)
VH: EVQLVESGGGLVQPGGSLRLSCAASGFVFSSYDMSWVRQAPGKGLEWVSYISSGGGITYYADSVKGRFTISRDNSKNTLYLQMNSLRAEDTAVYYCAAHYFGSSGPFAYWGQGTLVTVSS
VL: DIQMTQSPSSLSASVGDRVTITCRASENIFSYLAWYQQKPGKAPKLLIYNTRTLQSGVPSRFSGSGSGTDFTLTISSLQPEDFATYYCQHHYGAPFTFGQGTKLEIK
notes: variant of MAb2_VLg5VHg2
On to B4, for which the binding result in experiment [4] is “binds”.

B5: HC_S53A (antibody, V domains shown)
VH: EVQLVESGGGLVQPGGSLRLSCAASGFVFSSYDMSWVRQAPGKGLEWVSYISAGGGITYYADSVKGRFTISRDNSKNTLYLQMNSLRAEDTAVYYCAAHYFGSSGPFAYWGQGTLVTVSS
VL: DIQMTQSPSSLSASVGDRVTITCRASENIFSYLAWYQQKPGKAPKLLIYNTRTLQSGVPSRFSGSGSGTDFTLTISSLQPEDFATYYCQHHYGTPFTFGQGTKLEIK
notes: variant of MAb2_VLg5VHg2
As for B5, the binding result in experiment [5] and in experiment [6] was “binds” each time.

B6: LC_T51A-T94A (antibody, V domains shown)
VH: EVQLVESGGGLVQPGGSLRLSCAASGFVFSSYDMSWVRQAPGKGLEWVSYISSGGGITYYADSVKGRFTISRDNSKNTLYLQMNSLRAEDTAVYYCAAHYFGSSGPFAYWGQGTLVTVSS
VL: DIQMTQSPSSLSASVGDRVTITCRASENIFSYLAWYQQKPGKAPKLLIYNARTLQSGVPSRFSGSGSGTDFTLTISSLQPEDFATYYCQHHYGAPFTFGQGTKLEIK
notes: as for B2
As for B6, the binding result in experiment [3] and in experiment [4] was “binds” in each case.

B7: LC_S31A-HC_G54Y (antibody, V domains shown)
VH: EVQLVESGGGLVQPGGSLRLSCAASGFVFSSYDMSWVRQAPGKGLEWVSYISSYGGITYYADSVKGRFTISRDNSKNTLYLQMNSLRAEDTAVYYCAAHYFGSSGPFAYWGQGTLVTVSS
VL: DIQMTQSPSSLSASVGDRVTITCRASENIFAYLAWYQQKPGKAPKLLIYNTRTLQSGVPSRFSGSGSGTDFTLTISSLQPEDFATYYCQHHYGTPFTFGQGTKLEIK
notes: as for B2
As to B7, the binding result in experiment [3] and in experiment [4] was “binds” in each case.

B8: LC_T51A (antibody, V domains shown)
VH: EVQLVESGGGLVQPGGSLRLSCAASGFVFSSYDMSWVRQAPGKGLEWVSYISSGGGITYYADSVKGRFTISRDNSKNTLYLQMNSLRAEDTAVYYCAAHYFGSSGPFAYWGQGTLVTVSS
VL: DIQMTQSPSSLSASVGDRVTITCRASENIFSYLAWYQQKPGKAPKLLIYNARTLQSGVPSRFSGSGSGTDFTLTISSLQPEDFATYYCQHHYGTPFTFGQGTKLEIK
notes: variant of MAb2_VLg5VHg2
Turning to B8, the binding result in experiment [5] and in experiment [6] was “binds” in each case.
